The values that follow come from patent US20040253689A1 (published 2004).

Assay [1] addresses T1, ^125I-IGF-I (human, UniProt P05019 49-118, radioiodinated (^125I, 2000 Ci/mmol); labelled residue not stated).
T1 construct: also called insulin growth factor-I
In words: solution binding of ^125I-IGF-I, charcoal separation; reference wild-type CHO-hIGFBP-3. The protocol: (§1) Binding of ¹²⁵I-IGF-I and ¹²⁵I-IGF-II in solution —¹²⁵I-IGF-I or ¹²⁵I-IGF-II (˜25,000 cpm) was incubated overnight at 4° C. with different concentrations of recombinant hIGFBP-3 standard (R&D Systems), or purified wild-type or mutant CHO-hIGFBP-3 in 0.4 ml phosphate-buffered saline supplemented with 0.2% fatty acid-free bovine serum albumin. Following the addition of 0.5 ml of a 5% suspension of activated charcoal (Sigma) to adsorb unbound IGF tracer, the samples were centrifuged. Radioactivity bound to hIGFBP-3 remained in the charcoal supernate and was quantified in a gamma counter (Yang et al. (1993), supra). DNA synthesis—DNA synthesis was measured in CCL64 cells by the incorporation of the thymidine analog BrdU into newly synthesized as previously described (Wu et al. (2000), supra). Quiescent cells in serum-free medium were stimulated to synthesize DNA by adding EGF. EGF was used to stimulate proliferation instead of serum to avoid introducing IGFs. In brief, the cells were plated in 96-well microtiter plates (30,000 cells/well) in 0.2 ml of DMEM containing 10% fetal calf serum, and incubated for 3 h at 37° C. […] BrdU (10 μM) was added for 2-3 h, the cells were fixed, and BrdU incorporation was quantified by an immunocolorimetric assay using monoclonal antibody to BrdU conjugated to peroxidase. […] The absorbance at 450 nm was measured in a scanning multiwell spectrophotometer.

Assay [2] concerns the target T2, ^125I-IGF-II (human, UniProt P01344 25-91, radioiodinated (^125I, 2000 Ci/mmol); labelled residue not stated).
T2 construct: also called insulin growth factor-II
Kind of assay: solution binding of ^125I-IGF-II, charcoal separation; reference wild-type CHO-hIGFBP-3. The method, then: as §1

Substitutions are numbered along the chain they refer to. Names may count otherwise.

T1 sequence (P05019 49-118 limits assumed): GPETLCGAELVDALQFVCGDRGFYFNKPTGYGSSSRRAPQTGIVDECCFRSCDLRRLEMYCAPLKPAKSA
T2 sequence (P01344 25-91 limits assumed): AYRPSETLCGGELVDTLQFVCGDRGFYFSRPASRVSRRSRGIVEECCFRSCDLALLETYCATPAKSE

B1: 4m-hIGFBP-3 (R75A, L77A, L80A, L81A mutant CHO-hIGFBP-3) (other, human)
chain: HHHHHHGMASMTGGQQMGRDLYDDDDKGASSAGLGPVVRCEPCDARALAQCAPPPAVCAELVREPGCGCCLTCALSEGQPCGIYTERCGSGLRCQPSPDEAAPAQAAADGRGLCVNASAVSRLRAYLLPAPPAPGNASESEEDRSAGSVESPSVSSTHRVSDPKFHPLHSKIIIIKKGHAKDSQRYKVDYESQSTDTQNFSSESKRETEYGPCRREMEDTLNHLKFLNVLSPRGVHIPNCDKKGFYKKKQCRPSKGRKRGFCWCVDKYGQPLPGYTTKGKEDVHCYSMQSK
notes: mature; Same tagged construct as the wild-type CHO-hIGFBP-3, with four alanine substitutions; also called quadruple mutant
With B1, the “fold lower concentration of wild-type CHO-hIGFBP-3 that still bound more than the mutant at 200 ng/ml” value in assay [1] and in assay [2] was above 80 fold in each case.

B2: 6m-hIGFBP-3 (I56A, Y57A, R75A, L77A, L80A, L81A mutant CHO-hIGFBP-3) (other, human)
chain: B1 chain with I83A, Y84A
notes: mature; Same tagged construct as the wild-type CHO-hIGFBP-3, with six alanine substitutions; Positions count on mature hIGFBP-3, not on the precursor; also called 6m-CHO-hIGFBP-3
Consider B2, for which the “fold lower concentration of wild-type CHO-hIGFBP-3 that still bound more than the mutant at 200 ng/ml” value in assay [1] was 80 fold; in assay [2], above 80 fold.
